The data set “native gel or EMSA” deals with the molecule itself. The data set is described as follows: native gel or EMSA.
Data set [1] has as its target T1, CreYin;CreYang (P1 phage;P1 phage, UniProt P06956;P06956 1-343;1-343, D33A;A36V;R192A|R72E;L115D;R119D). Description: cryo-EM.
Data set [2] concerns the target T2, Cre K201A (P1 phage, UniProt P06956 1-343, K201A). Description: cryo-EM.
The target of data set [3] is T3, CreYin (P1 phage, UniProt P06956 1-343, D33A;A36V;R192A). The data set is described as follows: native MS.
Data set [4] concerns the target T4, CreYang (P1 phage, UniProt P06956 1-343, R72E;L115D;R119D). Description: native MS.
For data set [5], the target named is T1, CreYin;CreYang. The data set is described as follows: native MS.
The target in data set [6] is T3, CreYin. The data set is described as follows: cryo-EM.
Data set [7] addresses T1, CreYin;CreYang. The data set is described as follows: EMSA. (Mobility shift assays separate free from complexed probe on a gel.)
Data set [8] addresses T2, Cre K201A. Description: EMSA.
The target of another data set is Cre deltaN (CreΔαN) (P1 phage, UniProt P06956 1-330). The data set is described as follows: EMSA.
For data set [9], the target named is T4, CreYang. The data set is described as follows: EMSA.
For data set [10], the target named is T3, CreYin. Description: EMSA.

The values that follow come from PMC8860596 (Nucleic Acids Research, 2021).

As a reminder, the stoichiometry N is a count of units in the complex or per binding partner.

B1: Cre recombinase K201A (cleavage-deficient variant) (enzyme, P1 phage)
chain: MSNLLTVHQNLPALPVDATSDEVRKNLMDMFRDRQAFSEHTWKMLLSVCRSWAAWCKLNNRKWFPAEPEDVRDYLLYLQARGLAVKTIQQHLGQLNMLHRRSGLPRPSDSNAVSLVMRRIRKENVDAGERAKQALAFERTDFDQVRSLMENSDRCQDIRNLAFLGIAYNTLLRIAEIARIRVKDISRTDGGRMLIHIGRTATLVSTAGVEKALSLGVTKLVERWISVSGVADDPNNYLFCRVRKNGVAAPSATSQLSTRALEGIFEATHRLIYGAKDDSGQRYLAWSGHSARVGAARDMARAGVSIPEIMQAGGWTNVNIVMNYIRNLDSETGAMVRLLEDGD
As for B1, the “stoichiometry N” value in “native gel or EMSA” stood at 4.

B2: loxP-44 (dsDNA)
DNA 1: CGGCGATAACTTCGTATAATGTATGCTATACGAAGTTATGCGGC
DNA 2: GCCGCATAACTTCGTATAGCATACATTATACGAAGTTATCGCCG
B2: the binding result with CreYin;CreYang [1] and with Cre K201A [2] was “binds” throughout.

B3: loxP-38 (dsDNA)
DNA 1: CGATAACTTCGTATAATGTATGCTATACGAAGTTATGC
DNA 2: GCATAACTTCGTATAGCATACATTATACGAAGTTATCG
Take B3: the binding result with CreYin [3], with CreYang [4] and with CreYin;CreYang [5] was “binds” in each case.

Turning to GCATAACTTCGTATAGCATATGCGAAGCATATGCTATACGAAGTTATGC (structured_DNA) [loxA hairpin], the binding result with CreYin [6] is reported as “binds”.

B4: loxP-54 (dsDNA)
DNA 1: CGAGTGGCCGATAACTTCGTATAATGTATGCTATACGAAGTTATGCGGCGTGAC
DNA 2: GTCACGCCGCATAACTTCGTATAGCATACATTATACGAAGTTATCGGCCACTCG
Consider B4, for which the binding result with CreYin;CreYang [7], with Cre K201A [8], with Cre deltaN (CreΔαN), with CreYang [9] and with CreYin [10] was “binds” in each case.
